Results reported in patent US20260285964 (published 2026).

Columns and labels:
mouse IL-36R (IL-1Rrp2) = biological target: T1, mouse IL-36R (IL-1Rrp2) (mouse, UniProt Q9ERS7)
T1 chain: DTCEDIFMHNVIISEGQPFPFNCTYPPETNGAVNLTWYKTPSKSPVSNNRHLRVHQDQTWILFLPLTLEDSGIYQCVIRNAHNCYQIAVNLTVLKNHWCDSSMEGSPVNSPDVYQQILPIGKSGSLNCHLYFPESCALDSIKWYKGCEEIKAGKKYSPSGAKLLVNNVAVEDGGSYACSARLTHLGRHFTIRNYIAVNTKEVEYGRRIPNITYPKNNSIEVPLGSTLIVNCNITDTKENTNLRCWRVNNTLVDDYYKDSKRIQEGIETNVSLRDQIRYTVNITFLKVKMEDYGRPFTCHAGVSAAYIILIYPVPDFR

rat IL-36R = biological target: T2, rat IL-36R (rat, UniProt Q62929)
T2 chain: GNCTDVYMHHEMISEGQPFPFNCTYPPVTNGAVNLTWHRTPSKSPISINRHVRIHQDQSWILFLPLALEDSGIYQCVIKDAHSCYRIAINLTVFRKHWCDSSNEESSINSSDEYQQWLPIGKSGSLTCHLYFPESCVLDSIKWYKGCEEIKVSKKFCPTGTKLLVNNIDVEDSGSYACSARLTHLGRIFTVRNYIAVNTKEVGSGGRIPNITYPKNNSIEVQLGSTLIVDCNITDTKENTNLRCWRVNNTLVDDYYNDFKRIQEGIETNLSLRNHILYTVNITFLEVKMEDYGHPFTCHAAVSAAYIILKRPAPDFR

binding result (mouse IL-36R (IL-1Rrp2)): no binding
binding result (rat IL-36R): no binding
B1: HB0034 (antibody, V domains shown)
VH: QVQLVQSGAEVKKPGASVKVSCKASGYTFTSSWMHWAKQAPGQGLEWIGEIHPNSAKTNYNQKFQGRVTMTRDTSISTAYMELSRLRSDDTAVYYCARVDYGKPWFAYWGQGTLVTVSS
VL: QIVLTQSPGTLSLSPGERATLSCRASSSVSSSYLHWYQQKPGQAPRLWIYSTSSRATGIPDRFSGSGSGTDFTLTISRLEPEDFATYYCQQFQSSPLTFGQGTKLEIK
